Positions of bridges follow the written chain, without caps; N, C: chain ends. Groups on a side chain read outwards from the residue. Chains are numbered I, II in the order given. *: point of attachment. Biotin = O=C1N[C@H]2[C@H](CS[C@H]2CCCCC(=O)*)N1; AEEA = NCCOCCOCC(=O)O
Columns and labels:
[1] = biological target: KDR (VEGFR-2), full-length receptor on cells (human), P35968; test: specific binding of neutravidin-HRP complex at 3.33 nM to KDR-transfected cells; reference P5-XB (1X) + P1-XB (3X)
Sequence of KDR (VEGFR-2), full-length receptor on cells (human), P35968 (P35968 20-1356): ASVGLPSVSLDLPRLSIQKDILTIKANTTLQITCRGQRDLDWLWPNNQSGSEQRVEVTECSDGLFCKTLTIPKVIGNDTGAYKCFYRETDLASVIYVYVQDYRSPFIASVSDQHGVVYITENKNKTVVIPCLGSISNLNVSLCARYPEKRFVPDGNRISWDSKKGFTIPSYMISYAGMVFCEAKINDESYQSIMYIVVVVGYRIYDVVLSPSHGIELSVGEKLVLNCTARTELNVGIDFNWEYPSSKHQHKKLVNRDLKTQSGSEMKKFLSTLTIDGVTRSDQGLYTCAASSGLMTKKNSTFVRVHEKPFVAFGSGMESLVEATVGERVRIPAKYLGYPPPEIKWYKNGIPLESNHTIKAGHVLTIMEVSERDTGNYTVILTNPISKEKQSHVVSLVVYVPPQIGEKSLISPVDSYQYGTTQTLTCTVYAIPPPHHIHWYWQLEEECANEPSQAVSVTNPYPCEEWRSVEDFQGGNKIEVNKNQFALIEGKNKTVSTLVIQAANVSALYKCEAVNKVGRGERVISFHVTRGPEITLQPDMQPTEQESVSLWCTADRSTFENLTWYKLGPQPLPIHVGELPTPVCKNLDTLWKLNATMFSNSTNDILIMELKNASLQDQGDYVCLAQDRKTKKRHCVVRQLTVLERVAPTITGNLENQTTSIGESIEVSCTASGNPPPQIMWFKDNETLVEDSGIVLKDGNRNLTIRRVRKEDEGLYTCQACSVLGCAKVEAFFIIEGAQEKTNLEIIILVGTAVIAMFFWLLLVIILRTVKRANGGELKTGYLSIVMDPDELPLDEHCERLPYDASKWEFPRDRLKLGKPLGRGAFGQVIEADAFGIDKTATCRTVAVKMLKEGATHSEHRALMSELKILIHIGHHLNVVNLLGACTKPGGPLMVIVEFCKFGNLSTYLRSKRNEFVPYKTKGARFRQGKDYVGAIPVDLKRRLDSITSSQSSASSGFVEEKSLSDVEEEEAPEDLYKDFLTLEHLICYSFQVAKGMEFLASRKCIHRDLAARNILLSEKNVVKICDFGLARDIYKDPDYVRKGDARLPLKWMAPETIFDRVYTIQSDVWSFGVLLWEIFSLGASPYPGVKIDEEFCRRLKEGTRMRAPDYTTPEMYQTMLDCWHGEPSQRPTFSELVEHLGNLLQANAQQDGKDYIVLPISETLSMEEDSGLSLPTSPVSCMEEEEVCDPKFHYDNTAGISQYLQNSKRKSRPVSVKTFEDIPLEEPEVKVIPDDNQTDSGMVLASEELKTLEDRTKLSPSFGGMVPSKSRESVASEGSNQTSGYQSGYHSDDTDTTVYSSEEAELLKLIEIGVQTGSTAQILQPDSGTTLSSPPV

[2] = biological target: KDR (VEGFR-2), full-length receptor on cells (human), P35968; test: specific binding of neutravidin-HRP complex at 2.78 nM to KDR-transfected cells; reference P1-XB (3X) + P6-XB (1X) at 5.55 nM
[3] = biological target: KDR (VEGFR-2), full-length receptor on cells (human), P35968; test: competition with 300 pM 125I-VEGF on KDR-transfected 293H cells; peptide 30 µM; details: remark: other sources report otherwise
[4] = biological target: KDR (VEGFR-2), full-length receptor on cells (human), P35968; test: competition with 300 pM 125I-VEGF on KDR-transfected 293H cells; peptide 0.3 µM; details: remark: other sources report otherwise

B1: P1-XB (2X) + P6-XB (1X) + P5-XB (1X) / neutravidin-HRP (peptide, not shown: large carriers; small tags and cut ends)
peptide 1: Ac-GDSRVCWEDSWGGEVCFRYDPGGGK([AEEA-AEEA-Biotin])-NH2
peptide 2: Ac-AGPKWCEEDWYYCMITGTGGGK([AEEA-AEEA-Biotin])-NH2
modifications: disulfide I:6-I:16, II:6-II:13 (inferred); not fully specified; also: bound via biotin to neutravidin-HRP
Heteromer/Monomer Ratio [1]: 109 fold

B2: P1-XB (1X) + P6-XB (2X) + P5-XB (1X) / neutravidin-HRP (peptide, not shown: large carriers; small tags and cut ends)
peptide 1: Ac-GDSRVCWEDSWGGEVCFRYDPGGGK([AEEA-AEEA-Biotin])-NH2
peptide 2: Ac-AGPKWCEEDWYYCMITGTGGGK([AEEA-AEEA-Biotin])-NH2
modifications: disulfide I:6-I:16, II:6-II:13 (inferred); not fully specified; also: bound via biotin to neutravidin-HRP
Heteromer/Monomer Ratio [1]: 242 fold

B3: P1-XB (1X) + P6-XB (1X) + P12-XB (2X) / neutravidin-HRP (peptide, not shown: large carriers; small tags and cut ends)
peptide 1: Ac-GDSRVCWEDSWGGEVCFRYDPGGGK([AEEA-AEEA-Biotin])-NH2
peptide 2: Ac-AGPTWCEDDWYYCWLFGTGGGK([AEEA-AEEA-Biotin])-NH2
modifications: disulfide I:6-I:16, II:6-II:13 (inferred); not fully specified; also: bound via biotin to neutravidin-HRP
Heteromer/Monomer Ratio [2]: 47 fold

Ac-AGPKWCEEDWYYCMITGTGGGK([AEEA-AEEA-Biotin])-NH2 (disulfide 6-13 (inferred)) [P5-XB]
% inhibition of 125I-labeled VEGF binding [3]: 48%
% inhibition of 125I-labeled VEGF binding [4]: 24.4%

B4: P1-XB (1X) + P6-XB (1X) + P5-XB (2X) / neutravidin-HRP (peptide, not shown: large carriers; small tags and cut ends)
peptide 1: Ac-GDSRVCWEDSWGGEVCFRYDPGGGK([AEEA-AEEA-Biotin])-NH2
peptide 2: Ac-AGPKWCEEDWYYCMITGTGGGK([AEEA-AEEA-Biotin])-NH2
modifications: disulfide I:6-I:16, II:6-II:13 (inferred); not fully specified; also: bound via biotin to neutravidin-HRP
Heteromer/Monomer Ratio [1]: 213 fold

— patent publication US20040210041A1
